Patent publication US20140295512A1, “Ketol-Acid Reductoisomerases With Improved Performance Properties” (CALIFORNIA INSTITUTE OF TECHNOLOGY, priority 2011, published 2014)

Key:
Type in all cases: biochemical
[1] = KARI assay of purified S. exigua KARI and variants with NADH (Examples 6-9); settings: for Ratio NADH/NADPH (U/mg): specific activity ratio
Protocol: (§1) S. exigua KARI activity or activities of its variants were assayed kinetically by monitoring the decrease in NADPH or NADH concentration by measuring the change in absorbance at 340 nm. An assay buffer was prepared containing 100 mM potassium phosphate pH 7.0, 1 mM DTT, 2.5 mM (S)-2-acetolactate, and 10 mM MgCl2 (final concentrations in the 1-mL assay, accounting for dilution with enzyme and cofactor). Fifty μL purified enzyme and 930 μL of the assay buffer were placed into a 1-mL cuvette. The reaction was initiated by addition of 20 μL NADPH or NADH (200 μM final concentration) for a general activity assay. Michaelis-Menten constants of the cofactors were determined with varying concentrations of NADPH (200-12 μM final) or NADH (200-6 μM final).

[2] = High-throughput screening of KARI variant libraries in E. coli lysates
Protocol: For growth and expression of KARI variants in deep well plates, sterile toothpicks were used to pick single colonies into shallow 96-well plates filled with 300 μL LBamp. Fifty μL of these overnight cultures were used to inoculate deep well plates filled with 600 μL of LBamp per well. The plates were grown at 37° C. with shaking at 250 rpm for 3 h. One hour before induction with IPTG (final concentration 0.5 mM), the temperature of the incubator was reduced to 25° C. After induction, growth and expression continued for 20 h at 25° C. and 250 rpm. Cells were harvested at 5,300 g and 4° C. and then stored at −20=C. The plates always contained four wild-type or parent S. exigua KARI colonies, three BL21(DE3) colonies carrying pET22b(+) to control for background reactions in cell lysates, and one well that contained only media to make sure the plates were free of contaminations.
Frozen cell pellets were thawed at room temperature for 20 min and then 200 μL of lysis buffer (100 mM Kpi, 750 mg/L lysozyme, 10 mg/L DNaseI, pH 7) were added. Plates were vortexed to resuspend the cell pellets. After a 60 min incubation phase at 37° C. and shaking at 130 rpm, plates were centrifuged at 5,300 g and 4° C. for 10 min. […] The depletion of NAD(P)H was monitored at 340 nm in a plate reader (TECAN) over 200 s.

[3] = KARI assay of purified S. exigua KARI and variants with NADPH (Examples 6-9)
Protocol: as §1

B1: Se1_KARI^4E10: S. exigua KARI variant L57V, R58P, S61C (protein, UniProt D0WGK0 1-342, looked up, variant L57V R58P S61C)
Ketol-acid reductoisomerase …: MSVKTKEKEMAVTILYEQDVDPKVIQGLKVGIIGYGSQGHAHALNLMDSGVDVRVGVPEGCSSWKTAEEAGLKVTDMDTAAEEADVIMVLVPDEIQPKVYQEHIAAHLKAGNTLAFAHGFNIHYGYIVPPEDVNVIMCAPKGPGHIVRRQFTEGSGVPDLACVQQDATGNAWDIVLSYCWGVGGARSGIIKATFAEETEEDLFGEQAVLCGGLVELVKAGFETLTEAGYPPELAYFECYHEMKMIVDLMYESGIHFMNYSISNTAEYGEYYAGPKVINEQSREAMKEILKRIQDGSFAQEFVDDCNNGHKRLLEQREAINTHPIETTGAQIRSMFSWIKKED
kcat NADH [1]: 0.90 s⁻¹ | kcat/Km ratio NADH/NADPH (cofactor specificity) [1]: 0.1 | U/mg NADH (specific activity) ([1]; cofactor NADH): 0.36 U/mg | Km ([1]; read-out: Km for cofactor NADH): 49 µM | Ratio NADH/NADPH (U/mg) [1]: 1.0 | Ratio NADH/NADPH (U/mg) ([1]; listed as 4E10): 1 | NADH/NADPH activity ratio in the screen/rescreen relative to parent [2]: more than doubled | kcat NADPH [3]: 0.90 s⁻¹ | U/mg NADPH (specific activity) ([3]; cofactor NADPH): 0.36 U/mg | Km ([3]; read-out: Km for cofactor NADPH): 4 µM
